The values below come from US20230399412A1 (NANJING IASO BIOTECHNOLOGY, published 2023).

Assay [1] addresses T1, CD70 on the cell surface of CD70-positive cell lines (UniProt P32970 1-193, limits assumed).
T1 construct: whole, on cells; One molecule for all cell lines; the cell line is named under assay; also called natural CD70 on the cell surface; CD70 antigen on Raji, U266, THP-1, RS4:11, REH, Molm-13 cells
T1 sequence (looked up): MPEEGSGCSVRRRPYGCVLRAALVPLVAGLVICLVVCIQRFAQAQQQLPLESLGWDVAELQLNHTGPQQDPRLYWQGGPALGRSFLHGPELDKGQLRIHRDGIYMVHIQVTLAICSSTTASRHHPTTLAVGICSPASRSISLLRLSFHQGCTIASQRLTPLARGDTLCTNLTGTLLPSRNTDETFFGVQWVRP
The assay can be described thus: phage FACS on CD70-positive cell lines (Raji, U266).

For assay [2], the target named is T2, Human CD70/CD27 Ligand Protein (human FC Tag)-Biotin (Kactus, CD7-HM270) (human, UniProt P32970 39-193, biotinylated).
T2 construct: Bought reagent; also called Kactus-CD70-Fc-Bio; Katcus-CD70-Fc-Bio; not shown: human Fc tag
T2 sequence (looked up): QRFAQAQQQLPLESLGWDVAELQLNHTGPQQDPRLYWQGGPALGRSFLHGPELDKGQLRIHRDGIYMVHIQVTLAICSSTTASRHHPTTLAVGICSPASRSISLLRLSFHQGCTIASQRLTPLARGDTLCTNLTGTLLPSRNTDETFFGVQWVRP
In words: phage ELISA. On the technique in general: In an ELISA, binding on a coated surface is turned into a signal by an enzyme label.

The target of assay [3] is T3, Biotinylated Human Siglec-2/CD22 Protein, human Fc, Avitag (ACRO biosystem, SI2-H82F8) (human, UniProt P20273 20-687, biotinylated (Avitag)).
T3 construct: Irrelevant control antigen; also called Acro-CD22-Bio; CD22-Fc-Bio; not shown: human Fc and Avitag
T3 sequence (looked up): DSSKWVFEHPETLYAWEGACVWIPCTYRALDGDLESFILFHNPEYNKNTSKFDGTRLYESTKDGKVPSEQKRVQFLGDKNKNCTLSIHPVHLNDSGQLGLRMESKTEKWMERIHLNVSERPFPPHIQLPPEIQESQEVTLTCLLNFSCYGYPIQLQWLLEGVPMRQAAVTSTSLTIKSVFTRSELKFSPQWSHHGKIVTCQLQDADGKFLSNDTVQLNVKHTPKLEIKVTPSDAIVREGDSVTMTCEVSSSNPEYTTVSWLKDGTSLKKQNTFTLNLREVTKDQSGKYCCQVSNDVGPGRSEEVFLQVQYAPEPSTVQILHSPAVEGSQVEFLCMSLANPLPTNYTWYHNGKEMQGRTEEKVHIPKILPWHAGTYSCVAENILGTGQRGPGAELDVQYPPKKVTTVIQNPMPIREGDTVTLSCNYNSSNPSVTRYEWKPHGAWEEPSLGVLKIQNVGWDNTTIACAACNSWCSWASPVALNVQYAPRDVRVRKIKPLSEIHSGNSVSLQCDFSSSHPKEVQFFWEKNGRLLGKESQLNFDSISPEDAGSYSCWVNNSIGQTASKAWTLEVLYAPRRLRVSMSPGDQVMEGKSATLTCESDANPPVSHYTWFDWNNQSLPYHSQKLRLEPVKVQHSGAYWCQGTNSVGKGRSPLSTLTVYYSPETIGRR
The assay can be described thus: phage ELISA.

Assay [4] concerns the target T4, Human CD70/CD27 Ligand Protein-his-Trimer-Biotin (Kactus, CD7-HM271) (human, UniProt P32970 39-193, biotinylated).
T4 construct: Bought reagent, named a trimer; also called Kactus-CD70Trimer-his-Bio; Katcus-CD70 Trimer-His-Bio; not shown: His tag (and any trimerisation part)
T4 sequence (looked up): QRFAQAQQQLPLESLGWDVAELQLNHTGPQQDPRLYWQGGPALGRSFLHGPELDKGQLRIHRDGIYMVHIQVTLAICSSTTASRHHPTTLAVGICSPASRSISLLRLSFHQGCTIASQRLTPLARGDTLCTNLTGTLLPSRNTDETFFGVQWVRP
In words: phage ELISA.

Assay [5] addresses T5, Human CD70/CD27 Ligand Protein-his-Trimer (Kactus, CD7-HM271-1) (human, UniProt P32970 39-193).
T5 construct: Bought reagent, named a trimer; also called Kactus-CD70 Trimer-his; Kactus-CD70Trimer-his; not shown: His tag (and any trimerisation part)
T5 sequence (looked up): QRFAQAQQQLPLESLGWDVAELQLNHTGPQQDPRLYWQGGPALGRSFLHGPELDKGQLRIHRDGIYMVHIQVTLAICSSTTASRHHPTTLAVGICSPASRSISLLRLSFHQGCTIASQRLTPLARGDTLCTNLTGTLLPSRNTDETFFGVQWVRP
The assay can be described thus: phage ELISA.

Assay [6] deals with T6, Biotinylated Human CD27 Ligand, Avitag, human Fc Tag (ACRO biosystem, TN7-H82F4) (human, UniProt P32970 39-193, biotinylated (Avitag)).
T6 construct: Bought reagent; also called Acro-CD70-Fc-Bio; not shown: human Fc tag and Avitag
T6 sequence (looked up): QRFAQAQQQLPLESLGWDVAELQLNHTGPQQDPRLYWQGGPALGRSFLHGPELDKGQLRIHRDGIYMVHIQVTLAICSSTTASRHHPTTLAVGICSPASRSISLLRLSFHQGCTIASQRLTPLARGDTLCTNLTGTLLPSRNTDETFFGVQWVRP
The assay can be described thus: phage ELISA.

The target in assay [7] is T7, Biotinylated Human CD27 Ligand, HIS, Avitag (ACRO biosystem, CDL-H82Q9) (human, UniProt P32970 39-193, biotinylated (Avitag)).
T7 construct: Bought reagent; also called Acro-CD70-his-Bio; CD70-his-Bio; not shown: His tag and Avitag
T7 sequence (looked up): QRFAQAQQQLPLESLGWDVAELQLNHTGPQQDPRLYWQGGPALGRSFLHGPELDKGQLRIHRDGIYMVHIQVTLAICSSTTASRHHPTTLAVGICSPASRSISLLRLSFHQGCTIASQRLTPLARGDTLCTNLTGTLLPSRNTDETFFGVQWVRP
The assay can be described thus: phage ELISA.

B1: phage monoclonal antibody clone #9 (VHH)
VHH: EVQLLESGGGLVQPGGSLRLSCAASGFTFNIDAMGWVRQAPGKGLEWVSSISSSGGTTYYADSVKGRFTISRDNSKNTLYLQMNSLRAEDTAVYYCARSRYSVPDGRGSYDVWGQGTLVTVSS
notes: single-domain antibody (heavy chain variable region alone); also called VHH 09; 09 antibody
As for B1, the binding result was “binds” in assay [1]; “binds” in assay [2]; “no binding” in assay [3]; “binds” in assay [4]; “binds” in assay [5]; “binds” in assay [6]. Further, the binding result in assay [7] is “binds”.

B2: phage monoclonal antibody clone #20 (VHH)
VHH: EVQLLESGGGLVQPGGSLRLSCAASGFTFSSYAMGWVRQAPGKGLEWVSSISGYGEETYYADSVKGRFTISRDNSKNTLYLQMNSLRAEDTAVYYCARFYYRYWKEFDYWGQGTLVTVSS
notes: single-domain antibody (heavy chain variable region alone); also called VHH20; VHH 20
On to B2, for which the binding result in assay [1] is on record as “binds”; in assay [2] it was “binds”; in assay [3], “no binding”; in assay [4], “binds”; in assay [5] it was “binds”; in assay [6] it was “binds”. Besides, the binding result in assay [7] was “binds”.

B3: phage monoclonal antibody clone #13 (VHH)
VHH: EVQLLESGGGLVQPGGSLRLSCAASGFTFSSEAMGWVRQAPGKGLEWVSSINGSGRNTYYADSVKGRFTISRDNSKNTLYLQMNSLRAEDTAVYYCARKHGEYYDSGYDVWGQGTLVTVSS
notes: single-domain antibody (heavy chain variable region alone); also called VHH13; VHH 13
Regarding B3, in assay [3], the binding result is “no binding”.

B4: phage monoclonal antibody clone #21 (VHH)
VHH: EVQLLESGGGLVQPGGSLRLSCAASGFTFSNYAMGWVRQAPGKGLEWVSSITGLGGNMYYADSVKGRFTISRDNSKNTLYLQMNSLRAEDTAVYYCARMYYSQGVNNYSYPSTDIWGQGTLVTVSS
notes: single-domain antibody (heavy chain variable region alone); also called VHH21; VHH 21
For the molecule B4, the binding result in assay [1] is given as “binds”; in assay [2], “binds”; in assay [3], “no binding”; in assay [4], “binds”; in assay [5], “binds”; in assay [6], “binds”. Also, the binding result in assay [7] is “binds”.

B5: phage monoclonal antibody clone #6 (scFv)
scFv: QAVLTQPPSASATPGQRVSISCSGSSSNIGRNTVNWYQHLPGTAPKLLIYSNDHRPSGVPDRFSGSQSGTSASLAISGLQSEDEADYYCASWDDSLTGWVFGGGTKVTVLGSRGGGGSGGGGSGGGGSLEMAQVQLVQSGAEVKKAGSSLKVSCKANGGSFTNYLINWVRQAPGQGLEWMGGIIPVYGTPIYSQKFQGRVTFTADEPTRTAYMELSSLTFEDTAVYYCVREDEGYGDLYLAYWGQGTLVTVSS
notes: also called scFv 06; Scfv06
Turning to B5, the binding result in assay [1] was “binds”; in assay [2] it was “binds”; in assay [3] it was “no binding”; in assay [4], “binds”; in assay [5] it was “binds”; in assay [6] it was “binds”. Also, in assay [7], the binding result was “binds”.
